Tested on: peptide library, one residue held at a place counted from the Y acceptor
Assay: relative phosphorylation of the sub-library (ratio to the mean residue at this position); higher = residue favoured
Summary of the method: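 In 384-well plates, purified recombinant kinases were incubated for 90 min with 50 μM ATP containing γ-32P-ATP and biotinylated Tyr-centred peptide libraries, each mixture fixing one residue at a single position between −5 and +5. After capture on streptavidin membranes and rinsing, peptides were quantified by phosphorimaging with ImageQuant. Per-position intensities were scaled to the sum of the 18 (Ser/Thr-free library: 16) randomized residues, then multiplied by that number.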

Chain of BTK, construct: Full length, human (Q06187 whole entry, looked up): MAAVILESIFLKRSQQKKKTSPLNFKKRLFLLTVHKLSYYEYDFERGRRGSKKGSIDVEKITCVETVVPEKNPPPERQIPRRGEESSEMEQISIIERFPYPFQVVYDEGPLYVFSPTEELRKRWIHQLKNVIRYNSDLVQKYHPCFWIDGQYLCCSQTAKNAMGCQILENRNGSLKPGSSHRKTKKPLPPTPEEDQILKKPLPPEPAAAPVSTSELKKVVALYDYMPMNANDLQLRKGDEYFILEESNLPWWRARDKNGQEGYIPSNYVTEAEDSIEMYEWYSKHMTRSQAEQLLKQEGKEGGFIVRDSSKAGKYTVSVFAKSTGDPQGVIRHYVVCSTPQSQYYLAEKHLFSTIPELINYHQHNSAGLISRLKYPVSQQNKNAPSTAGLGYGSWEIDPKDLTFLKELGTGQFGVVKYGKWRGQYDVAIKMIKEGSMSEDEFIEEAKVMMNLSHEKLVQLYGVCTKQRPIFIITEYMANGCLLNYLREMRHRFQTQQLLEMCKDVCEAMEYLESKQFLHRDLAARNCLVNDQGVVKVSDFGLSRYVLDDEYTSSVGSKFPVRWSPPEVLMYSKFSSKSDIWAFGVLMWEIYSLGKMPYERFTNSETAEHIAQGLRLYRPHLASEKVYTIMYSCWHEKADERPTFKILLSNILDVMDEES
Chain of BMX, construct: Full length, human (P51813 whole entry, looked up): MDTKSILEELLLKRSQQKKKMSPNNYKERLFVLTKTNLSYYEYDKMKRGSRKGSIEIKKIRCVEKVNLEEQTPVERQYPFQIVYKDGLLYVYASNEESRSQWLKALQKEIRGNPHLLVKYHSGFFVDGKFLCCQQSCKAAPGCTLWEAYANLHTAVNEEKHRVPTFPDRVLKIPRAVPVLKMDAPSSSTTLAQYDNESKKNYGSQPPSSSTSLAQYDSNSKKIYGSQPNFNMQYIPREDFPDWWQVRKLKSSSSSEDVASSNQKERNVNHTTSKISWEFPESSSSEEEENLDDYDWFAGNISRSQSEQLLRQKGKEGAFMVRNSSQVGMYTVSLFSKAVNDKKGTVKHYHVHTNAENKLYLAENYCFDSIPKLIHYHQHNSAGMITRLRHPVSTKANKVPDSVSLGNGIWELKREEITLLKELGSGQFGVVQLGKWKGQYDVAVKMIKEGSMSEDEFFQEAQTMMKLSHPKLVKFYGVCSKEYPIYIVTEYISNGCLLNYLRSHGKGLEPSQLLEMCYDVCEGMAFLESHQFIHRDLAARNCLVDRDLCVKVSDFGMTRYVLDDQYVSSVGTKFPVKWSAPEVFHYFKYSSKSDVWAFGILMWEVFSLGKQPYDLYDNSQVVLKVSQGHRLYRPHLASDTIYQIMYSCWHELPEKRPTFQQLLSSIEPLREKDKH

BMX, construct: Full length, human (from UniProt P51813)
relative phosphorylation
Conditions	at +1	at +2	at +3	at +4	at +5	at -1	at -2	at -3	at -4	at -5
A fixed	1.73	1.01	0.847	0.846	0.939	0.521	1.05	0.992	1.04	1.05
D fixed	0.82	0.761	0.324	0.746	0.903	0.726	1.43	1.48	1.31	1.11
E fixed	1.85	1.27	0.292	0.959	0.958	0.812	1.5	1.56	1.43	1.03
F fixed	0.504	1.02	1.53	0.876	1.11	1.13	0.558	1.12	0.855	0.993
G fixed	0.807	0.605	0.799	1.11	1.08	0.293	1.18	0.958	1.33	1.13
H fixed	0.451	0.611	2.04	1.1	1.01	0.643	0.912	0.864	0.866	0.921
I fixed	1.61	1.08	1.25	0.722	0.764	3.28	0.744	0.636	0.845	0.855
K fixed	0.251	0.768	0.639	0.881	0.914	0.281	0.792	0.672	0.898	1.03
L fixed	0.714	1	1.1	0.849	0.762	3.33	0.799	0.704	0.884	1.02
M fixed	1.28	0.979	1.15	1.06	1.04	1.24	0.71	0.805	0.958	0.938
N fixed	0.44	0.919	0.558	0.784	0.99	0.567	1.27	1.39	1.03	1.15
P fixed	0.166	0.873	0.569	1.12	1.3	0.5	1.38	1.13	1.27	1.19
Q fixed	1.26	1.02	1.09	1.19	0.953	0.652	1.3	1.08	1.26	1.1
R fixed	0.332	0.919	1.47	1.27	1.2	0.298	0.81	0.823	0.987	1.06
S fixed	1.38	1.27	0.866	0.935	1.1	0.475	1.18	1.08	0.797	0.923
T fixed	1.39	1.35	0.704	0.936	1.02	1.1	1.03	0.909	0.724	0.787
V fixed	1.74	1.42	1.24	0.898	0.788	1.64	0.866	0.792	0.738	0.867
W fixed	1.28	1.11	1.53	1.73	1.16	0.501	0.493	0.987	0.777	0.868
pThr fixed	2.3	2.57	0.296	0.734	0.603	2.21	1.19	1.25	1.09	0.986
pTyr fixed	1.29	2.49	0.504	0.852	0.858	9.03	1.27	1.46	1.22	1.05

BTK, construct: Full length, human (from UniProt Q06187)
relative phosphorylation
Conditions	at +1	at +2	at +3	at +4	at +5	at -1	at -2	at -3	at -4	at -5
A fixed	1.39	0.87	1.06	0.754	0.911	0.443	0.964	0.709	1.04	0.982
D fixed	0.67	0.561	0.345	0.63	0.755	0.375	1.14	1.22	1.19	1.1
E fixed	1.36	1.13	0.302	0.661	0.676	0.416	1.24	1.71	1.41	0.914
F fixed	0.954	1.32	1.41	1.1	1.46	1.97	0.934	1.43	1.13	1.21
G fixed	1.1	0.546	0.759	0.928	0.941	0.308	1.04	0.779	1.03	1.01
H fixed	0.657	0.679	0.995	1.02	0.909	1.3	0.871	1	0.984	1.02
I fixed	1.17	1.19	1.42	1.01	0.796	2.79	0.874	0.799	1.01	1.04
K fixed	0.398	0.873	1.01	1.17	1.05	0.294	0.708	0.644	0.736	0.884
L fixed	1.03	0.884	0.801	0.915	1.05	2.9	1.3	0.812	1.1	0.941
M fixed	1.43	1.05	0.925	1.38	1.24	1.55	0.796	1.11	1.03	1.18
N fixed	0.466	0.827	0.886	0.779	0.949	0.589	1.21	1.1	0.823	1.17
P fixed	0.181	0.636	0.553	0.772	1.23	0.526	1.19	0.967	1.03	0.99
Q fixed	0.963	0.923	0.722	1.07	0.816	0.486	0.966	0.892	1.01	0.937
R fixed	0.524	1.26	1.62	1.53	1.25	0.279	0.771	0.729	0.964	0.985
S fixed	0.888	1.05	1.14	0.749	0.755	0.375	1.15	0.814	0.725	0.766
T fixed	0.812	1.27	0.946	0.917	0.816	0.788	0.868	0.745	0.658	0.769
V fixed	1.58	1.27	1.3	0.944	0.892	1.55	1.07	0.838	0.926	0.965
W fixed	2.42	1.67	1.8	1.68	1.5	1.06	0.902	1.7	1.21	1.14
pThr fixed	1.09	1.45	0.357	0.523	0.47	0.911	1.01	0.846	0.896	0.954
pTyr fixed	1.22	1.58	0.433	0.603	0.684	1.26	1.14	1.15	1.26	1.09

Reference: the supplement of paper PMC11136658
